From publication PMC12704761, “RAD51AP1 is a versatile RAD51 modulator” (Proceedings of the National Academy of Sciences of the …, 2025) come the findings set out here.

B2: RAD51 recombinase (natural protein)
chain: MAMQMQLEANADTSVEEESFGPQPISRLEQCGINANDVKKLEEAGFHTVEAVAYAPKKELINIKGISEAKADKILAEAAKLVPMGFTTATEFHQRRSEIIQITTGSKELDKLLQGGIETGSITEMFGEFRTGKTQICHTLAVTCQLPIDRGGGEGKAMYIDTEGTFRPERLLAVAERYGLSGSDVLDNVAYARAFNTDHQTQLLYQASAMMVESRYALLIVDSATALYRTDYSGRGELSARQMHLARFLRMLLRLADEFGVAVVITNQVVAQVDGAAMFAADPKKPIGGNIIAHASTTRLYLRKGRGETRICKIYDSPCLPEAEAMFAINADGVGDAKD
notes: RAD51 recombinase, wild type; expressed from the pCH1-derived plasmid pJ9; In the cryo-EM samples it stood as a filament on ssDNA with Ca2+-ATP, Mg2+-ATP or Mg2+-ADP; the introduction speaks of the human genome and the discussion sets 'mouse proteins' of earlier work apart; source: E. coli BL21 (DE3), coexpressed with His-MBP-BRC4 and GroEL, purified (HisTrap, HiTrap Heparin, HiTrap Q)

Test [1] has as its target T1, RAD51 recombinase, Q06609.
T1 chain: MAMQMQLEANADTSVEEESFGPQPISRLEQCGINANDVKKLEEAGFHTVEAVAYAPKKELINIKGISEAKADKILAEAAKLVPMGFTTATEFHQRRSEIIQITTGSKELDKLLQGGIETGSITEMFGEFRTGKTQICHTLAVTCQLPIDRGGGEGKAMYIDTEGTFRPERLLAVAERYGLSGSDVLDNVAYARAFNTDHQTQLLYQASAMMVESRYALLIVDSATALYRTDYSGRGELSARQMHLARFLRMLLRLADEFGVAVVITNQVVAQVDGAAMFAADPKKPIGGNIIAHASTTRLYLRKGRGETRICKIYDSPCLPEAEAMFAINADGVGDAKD
As to the kind of experiment: pull-down. The settings on record: chain shown with the change; n = 3; parent: est. 54; read off a plot.

The target of test [2] is T2, RAD51AP1 Site-N mutant, full-length (UniProt Q96B01 1-352, K300 to alanine | K303 to alanine | W304 to alanine | P306 to alanine | P307 to …).
T2 construct: RAD51AP1 with five conserved Site-N residues (K300, K303, W304, P306, P307) mutated to alanine; source: expressed from a pET28 vector, purified (HisTrap, HiTrap Heparin, HiTrap Q, gel filtration); not shown: His6, C-terminal, kept
T2 sequence (looked up): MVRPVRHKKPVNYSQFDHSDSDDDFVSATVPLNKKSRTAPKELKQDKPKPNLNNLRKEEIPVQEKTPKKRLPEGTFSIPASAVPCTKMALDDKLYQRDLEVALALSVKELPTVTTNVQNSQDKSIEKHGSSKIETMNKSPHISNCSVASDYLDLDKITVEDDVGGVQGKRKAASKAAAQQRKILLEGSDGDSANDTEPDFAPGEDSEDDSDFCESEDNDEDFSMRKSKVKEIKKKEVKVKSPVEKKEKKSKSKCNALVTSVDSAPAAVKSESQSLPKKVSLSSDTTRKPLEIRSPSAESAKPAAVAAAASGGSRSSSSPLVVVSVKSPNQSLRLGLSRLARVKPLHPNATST
As to the kind of experiment: pull-down; His-tagged full-length RAD51AP1 (1 µM) immobilised on magnetic cobalt resin, RAD51 (1 µM) in pull-down buffer with ATP and Mg2+, 37 °C, 5 min; SDS-PAGE of supernatant and eluate. The settings on record: both partners purified.

Test [3] addresses T3, RAD51AP1 (RAD51 associated protein 1), full-length wild type (UniProt Q96B01 1-352).
T3 construct: RAD51AP1, synthetic gene from Invitrogen; printed residue numbers (H346); One of PDB 9QN8, 9QNA, 9QNB, 9QNC holds its modelled residues; Detailed protocols are in SI Appendix, Supplementary Methods; also called WT; source: expressed from a pET28 vector, purified (HisTrap, HiTrap Heparin, HiTrap Q, gel filtration); not shown: His6, C-terminal, kept
T3 sequence (looked up): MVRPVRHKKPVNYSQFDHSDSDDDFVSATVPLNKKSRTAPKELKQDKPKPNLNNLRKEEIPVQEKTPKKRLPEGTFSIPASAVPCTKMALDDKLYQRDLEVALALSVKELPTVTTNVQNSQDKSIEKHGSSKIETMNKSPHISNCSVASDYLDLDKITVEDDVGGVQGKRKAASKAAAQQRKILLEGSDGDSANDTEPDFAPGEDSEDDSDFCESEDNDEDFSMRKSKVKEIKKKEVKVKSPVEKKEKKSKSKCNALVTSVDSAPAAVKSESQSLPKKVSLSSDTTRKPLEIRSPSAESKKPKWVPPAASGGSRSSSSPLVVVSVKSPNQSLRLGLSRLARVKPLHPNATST
The test is described as follows: BLI; RAD51AP1 with C-terminal hexahistidine tag on nickel-NTA biosensors, RAD51 2.5 µM to 39 nM, Octet Red, 25 °C, Kd from response against concentration, 1:1 model. The settings on record: both partners purified. (In BLI a coated tip is dipped into the sample, and binding shifts an interference pattern.)

In test [4] the target is T4, RAD51AP1-H346A (Site-C mutant), full-length (UniProt Q96B01 1-352, H346A).
T4 construct: RAD51AP1 with H346A; source: expressed from a pET28 vector, purified (HisTrap, HiTrap Heparin, HiTrap Q, gel filtration); not shown: His6, C-terminal, kept
T4 sequence (looked up): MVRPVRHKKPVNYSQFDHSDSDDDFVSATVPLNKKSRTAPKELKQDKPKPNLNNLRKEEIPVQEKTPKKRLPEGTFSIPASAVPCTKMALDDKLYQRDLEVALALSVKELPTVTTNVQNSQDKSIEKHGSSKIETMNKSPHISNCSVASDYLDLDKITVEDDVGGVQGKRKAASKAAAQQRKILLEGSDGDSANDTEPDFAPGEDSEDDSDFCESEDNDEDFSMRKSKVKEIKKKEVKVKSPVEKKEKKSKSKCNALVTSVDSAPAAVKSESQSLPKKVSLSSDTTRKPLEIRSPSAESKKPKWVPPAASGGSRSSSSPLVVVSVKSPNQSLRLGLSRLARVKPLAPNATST
The test is described as above. The settings on record: both partners purified.

The target of test [5] is T5, RAD51AP1 Site-NC double mutant, full-length (UniProt Q96B01 1-352, K300 to alanine | K303 to alanine | W304 to alanine | P306 to alanine | P307 to …).
T5 construct: RAD51AP1 in which both Site-N (K300, K303, W304, P306, P307 to alanine) and Site-C (H346A) are mutated; also called Site-N and Site-C double mutant; source: expressed from a pET28 vector, purified (HisTrap, HiTrap Heparin, HiTrap Q, gel filtration); not shown: His6, C-terminal, kept
T5 sequence (looked up): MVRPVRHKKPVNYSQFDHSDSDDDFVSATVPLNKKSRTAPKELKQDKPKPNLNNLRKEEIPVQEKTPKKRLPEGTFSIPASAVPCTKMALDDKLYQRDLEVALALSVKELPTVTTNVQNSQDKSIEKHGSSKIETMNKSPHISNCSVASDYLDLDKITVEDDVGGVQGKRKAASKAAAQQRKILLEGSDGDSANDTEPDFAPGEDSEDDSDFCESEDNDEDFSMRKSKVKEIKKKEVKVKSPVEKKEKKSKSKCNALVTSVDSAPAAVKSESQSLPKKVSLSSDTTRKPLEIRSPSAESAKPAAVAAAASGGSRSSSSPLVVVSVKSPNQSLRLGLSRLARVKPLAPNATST
Described as above. The settings on record: both partners purified.

For the test “RAD51 recombinase”, the target named is B2. The test is described as follows: cryo-EM structure; RAD51-ssDNA filaments formed with Mg2+-ATP (7 µM RAD51) mixed with C29 (28 µM); single particle analysis, 3.0 Å. The conditions noted are these: both partners purified.

B1: RAD51AP1 C59, wild type K300A; K303A; W304A; P306A; P307A (protein)
chain: SPSAESAKPAAVAAAASGGSRSSSSPLVVVSVKSPNQSLRLGLSRLARVKPLHPNATST
Turning to B1, the response in test [1] came out at 60%.
Consider B2, for which the binding result in test [2] was “binds”. For the same molecule, the dissociation constant Kd (commonly a measure of binding affinity in units of concentration) in test [3] is around 600 nM. For the same molecule, the “fold decrease in binding affinity against wild-type RAD51AP1” value in test [4] was around 2.5 fold. Moreover, the “fold reduction in affinity against wild-type RAD51AP1” value in test [5] was around 4 fold.

B3: RAD51AP1 C29 (domain or fragment, UniProt Q96B01 324-352, looked up)
chain: SVKSPNQSLRLGLSRLARVKPLHPNATST
notes: RAD51AP1, C-terminal 29 residues; lacks Site-N, contains Site-M and Site-C; One of PDB 9QN8, 9QNA, 9QNB, 9QNC holds it; also called RAD51AP1 C29 fragment; RAD51AP1 C-terminal domain
Turning to B3, the binding result with RAD51 recombinase was “binds”.
